# According to patent publication US20250163145A1 (SHIONOGI, published 2025):
# Where no end group is shown, it is not given here.
# T1: epitope peptide Cys-CE3C long (also: biotin label, site not given here)
# T1 peptide: CSVNVDKQPKYEYSL
# Molecular target: T1, epitope peptide Cys-CE3C long
# Experiment: competitive ELISA, unlabeled vs biotin-labeled peptide, antibody on anti-human IgG plate
# Description: A diluted solution of the obtained recombinant humanized antibody, a biotin-labeled immunogen peptide, and Streptavidin-HRP (manufactured by PIERCE) were added to an anti-human IgG antibody-immobilized plate, and reacted overnight at 4° C. […] Next, a recombinant human antibody at the dilution rate, a biotin-labeled immunogen peptide, and Streptavidin-HRP (manufactured by PIERCE) were added. At the same time, a dilution series of unlabeled immunogenic peptide was added and reacted overnight at 4° C. After washing twice with ELISA wash buffer, TMB-Substrate Chromogen (manufactured by Thermo Fisher Scientific) was added to develop color, the reaction was stopped with an equal amount of 0.5N sulfuric acid, and the absorbance at 450 nm was measured. The concentration of the unlabeled peptide which attenuated the signal of the biotin-labeled peptide by half was defined as the affinity (IC50).
row,Binder,IC50 [nM]
1,"h15H11-42 (antibody, human IgG4 S228P, kappa, V domains shown, hIgG4Pro/hIgK) VH: QVQLVQSGSELKKPGASVKVSCKASGYTFTDYNMHWVRQAPGRSLEWMGRINPKNGVINSNEKFKDRFVFSLDTSVSTAYLQISSLKAEDTAVYYCAPSYYGGKTDAYWGQGTLVTVSS VL: DIVLTQSPASLAVSPGQRATITCRASESVDNYGISFMNWFQQKPGQPPKLLIYAASSQGSGVPARFSGSGSGTDFTLTINPMEANDTANYYCQQSKEFPWTFGGGTKVEIKR",0.83
2,"h15H11-43 (antibody, human IgG4 S228P, kappa, V domains shown, hIgG4Pro/hIgK) VH: QVQLVQSGSELKKPGASVKVSCKASGYTFTDYNMHWVRQAPGRSLEWMGRINPKNGVINSNEKFKDRFVFSLDTSVSTAYLQISSLKAEDTAVYYCAPSYYGGNTDAYWGQGTLVTVSS VL: DIVLTQSPASLAVSPGQRATITCRASESVDNYGFSFMNWFQQKPGQPPKLLIYAASSQGSGVPARFSGSGSGTDFTLTINPMEANDTANYYCQQSKEFPWTFGGGTKVEIKR",0.83

# Molecular target: T1, epitope peptide Cys-CE3C long
# Experiment: ELISA, supernatant IgG on anti-human IgG plate, biotin-peptide + streptavidin-HRP; titer per unit IgG
# Description: The amount of IgG in the supernatant was determined by the following method. To evaluate the amount of IgG in the supernatant, the culture supernatant was added to an anti-human IgG antibody (manufactured by Jackson) immobilized plate, after reacting at room temperature for 3 hours, washed twice with ELISA wash buffer, and HRP-labeled anti-human IgG antibody (manufactured by Jackson) was reacted at 4° C. overnight. After washing twice with ELISA wash buffer and developing color by adding TMB-Substrate Chromogen (manufactured by Thermo Fisher Scientific), the reaction was stopped with an equal volume of 0.5N sulfuric acid, and the absorbance at 450 nm was measured to calculate (A) the dilution factor of the culture supernatant at which the OD was 1.0.
# The titer of IgG in the supernatant against the epitope peptide was determined by the following method. In order to evaluate the titer of IgG in the supernatant against epitope peptides, the culture supernatant was added to an anti-human IgG antibody (manufactured by Jackson) immobilized plate, reacted for 3 hours at room temperature, and then washed twice with ELISA wash buffer, and a biotin-labeled epitope peptide (Cys-CE3C long: SEQ ID NO: 13) and Streptavidin-HRP (manufactured by PIERCE) were added and reacted overnight at 4° C. After washing twice with ELISA wash buffer and developing color by adding TMB-Substrate Chromogen (manufactured by Thermo Fisher Scientific), the reaction was stopped with an equal volume of 0.5N sulfuric acid, the absorbance at 450 nm was measured to calculate (B) the dilution ratio of the culture supernatant at which the OD was 1.0.
# The titer (ratio) against the epitope peptide (Cys-CE3C long: SEQ ID NO: 13) per unit IgG amount was calculated as (B)/(A).
row,Binder,(B)/(A) titer (ratio) against the epitope peptide per unit IgG amount
1,"humanized 15H11 CDR graft IGKV1-39 / IGHV1-2 (R94P) (antibody, human IgG4 S228P, kappa, V domains shown, hIgG4Pro/hIgK) VH: QVQLVQSGAEVKKPGASVKVSCKASGYTFTDYNMHWVRQAPGQGLEWMGRINPKNGVINSNEKFKDRVTMTRDTSISTAYMELSRLRSDDTAVYYCAPSYYGGNTDAYWGQGTLVTVSS VL: DIQMTQSPSSLSASVGDRVTITCRASESVDNYGISFMNWYQQKPGKAPKLLIYAASSQGSGVPSRFSGSGSGTDFTLTISSLQPEDFATYYCQQSKEFPWTFGGGTKVEIKR",0.14
2,"humanized 15H11 CDR graft IGKV3-11 / IGHV1-2 (R94P) (antibody, human IgG4 S228P, kappa, V domains shown, hIgG4Pro/hIgK) VH: QVQLVQSGAEVKKPGASVKVSCKASGYTFTDYNMHWVRQAPGQGLEWMGRINPKNGVINSNEKFKDRVTMTRDTSISTAYMELSRLRSDDTAVYYCAPSYYGGNTDAYWGQGTLVTVSS VL: EIVLTQSPATLSLSPGERATLSCRASESVDNYGISFMNWYQQKPGQAPRLLIYAASSQGSGIPARFSGSGSGTDFTLTISSLEPEDFAVYYCQQSKEFPWTFGGGTKVEIKR",0.15
3,"humanized 15H11 CDR graft IGKV1-39 / IGHV7-4-1 (R94P) (antibody, human IgG4 S228P, kappa, V domains shown, hIgG4Pro/hIgK) VH: QVQLVQSGSELKKPGASVKVSCKASGYTFTDYNMHWVRQAPGQGLEWMGRINPKNGVINSNEKFKDRFVFSLDTSVSTAYLQISSLKAEDTAVYYCAPSYYGGNTDAYWGQGTLVTVSS VL: DIQMTQSPSSLSASVGDRVTITCRASESVDNYGISFMNWYQQKPGKAPKLLIYAASSQGSGVPSRFSGSGSGTDFTLTISSLQPEDFATYYCQQSKEFPWTFGGGTKVEIKR",0.16
4,"humanized 15H11 CDR graft IGKV1-39 / IGHV1-3 (R94P) (antibody, human IgG4 S228P, kappa, V domains shown, hIgG4Pro/hIgK) VH: QVQLVQSGAEVKKPGASVKVSCKASGYTFTDYNMHWVRQAPGQRLEWMGRINPKNGVINSNEKFKDRVTITRDTSASTAYMELSSLRSEDTAVYYCAPSYYGGNTDAYWGQGTLVTVSS VL: DIQMTQSPSSLSASVGDRVTITCRASESVDNYGISFMNWYQQKPGKAPKLLIYAASSQGSGVPSRFSGSGSGTDFTLTISSLQPEDFATYYCQQSKEFPWTFGGGTKVEIKR",0.12
5,"humanized 15H11 CDR graft IGKV1-39 / IGHV1-18 (R94P) (antibody, human IgG4 S228P, kappa, V domains shown, hIgG4Pro/hIgK) VH: QVQLVQSGAEVKKPGASVKVSCKASGYTFTDYNMHWVRQAPGQGLEWMGRINPKNGVINSNEKFKDRVTMTTDTSTSTAYMELRSLRSDDTAVYYCAPSYYGGNTDAYWGQGTLVTVSS VL: DIQMTQSPSSLSASVGDRVTITCRASESVDNYGISFMNWYQQKPGKAPKLLIYAASSQGSGVPSRFSGSGSGTDFTLTISSLQPEDFATYYCQQSKEFPWTFGGGTKVEIKR",0.13
6,"humanized 15H11 CDR graft IGKV1-39 / IGHV1-2 (antibody, human IgG4 S228P, kappa, V domains shown, hIgG4Pro/hIgK) VH: QVQLVQSGAEVKKPGASVKVSCKASGYTFTDYNMHWVRQAPGQGLEWMGRINPKNGVINSNEKFKDRVTMTRDTSISTAYMELSRLRSDDTAVYYCARSYYGGNTDAYWGQGTLVTVSS VL: DIQMTQSPSSLSASVGDRVTITCRASESVDNYGISFMNWYQQKPGKAPKLLIYAASSQGSGVPSRFSGSGSGTDFTLTISSLQPEDFATYYCQQSKEFPWTFGGGTKVEIKR",0.03
7,"humanized 15H11 CDR graft IGKV3-11 / IGHV1-46 (R94P) (antibody, human IgG4 S228P, kappa, V domains shown, hIgG4Pro/hIgK) VH: QVQLVQSGAEVKKPGASVKVSCKASGYTFTDYNMHWVRQAPGQGLEWMGRINPKNGVINSNEKFKDRVTMTRDTSTSTVYMELSSLRSEDTAVYYCAPSYYGGNTDAYWGQGTLVTVSS VL: EIVLTQSPATLSLSPGERATLSCRASESVDNYGISFMNWYQQKPGQAPRLLIYAASSQGSGIPARFSGSGSGTDFTLTISSLEPEDFAVYYCQQSKEFPWTFGGGTKVEIKR",0.12
8,"humanized 15H11 CDR graft IGKV1-39 / IGHV1-46 (R94P) (antibody, human IgG4 S228P, kappa, V domains shown, hIgG4Pro/hIgK) VH: QVQLVQSGAEVKKPGASVKVSCKASGYTFTDYNMHWVRQAPGQGLEWMGRINPKNGVINSNEKFKDRVTMTRDTSTSTVYMELSSLRSEDTAVYYCAPSYYGGNTDAYWGQGTLVTVSS VL: DIQMTQSPSSLSASVGDRVTITCRASESVDNYGISFMNWYQQKPGKAPKLLIYAASSQGSGVPSRFSGSGSGTDFTLTISSLQPEDFATYYCQQSKEFPWTFGGGTKVEIKR",0.09
9,"humanized 15H11 CDR graft IGKV3-11 / IGHV1-2 (antibody, human IgG4 S228P, kappa, V domains shown, hIgG4Pro/hIgK) VH: QVQLVQSGAEVKKPGASVKVSCKASGYTFTDYNMHWVRQAPGQGLEWMGRINPKNGVINSNEKFKDRVTMTRDTSISTAYMELSRLRSDDTAVYYCARSYYGGNTDAYWGQGTLVTVSS VL: EIVLTQSPATLSLSPGERATLSCRASESVDNYGISFMNWYQQKPGQAPRLLIYAASSQGSGIPARFSGSGSGTDFTLTISSLEPEDFAVYYCQQSKEFPWTFGGGTKVEIKR",0.05
10,"humanized 15H11 CDR graft IGKV3-20 / IGHV1-2 (antibody, human IgG4 S228P, kappa, V domains shown, hIgG4Pro/hIgK) VH: QVQLVQSGAEVKKPGASVKVSCKASGYTFTDYNMHWVRQAPGQGLEWMGRINPKNGVINSNEKFKDRVTMTRDTSISTAYMELSRLRSDDTAVYYCARSYYGGNTDAYWGQGTLVTVSS VL: EIVLTQSPATLSLSPGERATLSCRASESVDNYGISFMNWYQQKPGQAPRLLIYAASSQGSGIPARFSGSGSGTDFTLTISRLEPEDFAVYYCQQSKEFPWTFGGGTKVEIKR",0.04
11,"humanized 15H11 CDR graft IGKV3-11 / IGHV1-3 (R94P) (antibody, human IgG4 S228P, kappa, V domains shown, hIgG4Pro/hIgK) VH: QVQLVQSGAEVKKPGASVKVSCKASGYTFTDYNMHWVRQAPGQRLEWMGRINPKNGVINSNEKFKDRVTITRDTSASTAYMELSSLRSEDTAVYYCAPSYYGGNTDAYWGQGTLVTVSS VL: EIVLTQSPATLSLSPGERATLSCRASESVDNYGISFMNWYQQKPGQAPRLLIYAASSQGSGIPARFSGSGSGTDFTLTISSLEPEDFAVYYCQQSKEFPWTFGGGTKVEIKR",0.12
12,"humanized 15H11 CDR graft IGKV3-11 / IGHV1-18 (R94P) (antibody, human IgG4 S228P, kappa, V domains shown, hIgG4Pro/hIgK) VH: QVQLVQSGAEVKKPGASVKVSCKASGYTFTDYNMHWVRQAPGQGLEWMGRINPKNGVINSNEKFKDRVTMTTDTSTSTAYMELRSLRSDDTAVYYCAPSYYGGNTDAYWGQGTLVTVSS VL: EIVLTQSPATLSLSPGERATLSCRASESVDNYGISFMNWYQQKPGQAPRLLIYAASSQGSGIPARFSGSGSGTDFTLTISSLEPEDFAVYYCQQSKEFPWTFGGGTKVEIKR",0.15
13,"humanized 15H11 CDR graft IGKV7-3 / IGHV7-4-1 (R94P) (antibody, human IgG4 S228P, kappa, V domains shown, hIgG4Pro/hIgK) VH: QVQLVQSGSELKKPGASVKVSCKASGYTFTDYNMHWVRQAPGQGLEWMGRINPKNGVINSNEKFKDRFVFSLDTSVSTAYLQISSLKAEDTAVYYCAPSYYGGNTDAYWGQGTLVTVSS VL: DIVLTQSPASLAVSPGQRATITCRASESVDNYGISFMNWYQQKPGQPPKLLIYAASSQGSGVPARFSGSGSGTDFTLTINPVEANDTANYYCQQSKEFPWTFGGGTKVEIKR",0.26
